From patent publication US20060193821, “Aptamers to the human IL-12 cytokine family and their use as autoimmune disease therapeutics” (published 2006)

Experiments:
[1] = molecular target: T1, IL-23 (human, p19/p40 heterodimer) (Homo sapiens, UniProt Q9NPF7;P29460 SEQ:20-189,SEQ:23-328); assay: cell_activity; TransAM STAT3, PHA blasts, 3 ng/mL hIL-23; conditions: tags: R&D Systems
Description: (§1) In summary, the cell-based assay was conducted by isolating the peripheral blood mononuclear cells (PBMCs) from whole blood using a Histopaque gradient (Sigma, St. Louis, Mo.). The PBMCs were cultured for 3 to 5 days at 37° C./5% CO₂ in Peripheral Blood Medium (Sigma) which contains PHA, supplemented with IL-2 (100 units/mL) (R&D Systems, Minneapolis, Minn.), to generate PHA Blasts. To test IL-23 aptamers, the PHA Blasts were washed twice with 1×PBS, then serum starved for four hours in RPMI, 0.20% FBS. After serum starvation, approximately 2 million cells were aliquotted into appropriately labeled eppendorf tubes. hIL-23 at a final constant concentration of 3 ng/mL (R&D Systems, Minneapolis, Minn.) was combined with a dilution series of various IL-23 aptamers as described in Example 1, and the cytokine/aptamer mixture was added to the aliquotted cells in a final volume of 100 μl and incubated at 37° C. for 10-12 minutes. The incubation reaction was stopped by adding 1 mL of ice-cold PBS with 1.5 mM Na₃VO₄. Cell lysates were made using the lysis buffer provided by the TransAM™ STAT 3 assay following the manufacturer's instructions. FIG. 20 depicts a flow summary of the protocol used for the cell based assay.
(§2) Full length clones from the rRfY selection described in Example 1A, and select minimized rRfY clones that were described in Example 2A. […]

[2] = molecular target: T1, IL-23 (human, p19/p40 heterodimer); assay: competition; direct +tRNA 69 nM; conditions: tags: R&D Systems, carrier free
Description: The fraction aptamer bound vs. [IL-23] was used to calculate the KD by fitting the following equation to the data: Fraction aptamer bound=amplitude*([IL-23]/(KD+[IL-23]))+background binding.
Several of the minimized constructs from the dRmY Selection 2 were also assayed in a competition format in which cold aptamer was titrated and competed away trace ³²P ATP labeled aptamer In the competition assay, the [IL-23] was held constant, the [trace labeled aptamer] was held constant, and the [unlabeled aptamer] was varied. The KD was calculated by fitting the following equation to the data: Fraction aptamer bound=amplitude*([aptamer]/(KD+[aptamer]))+background binding.

[3] = molecular target: T1, IL-23 (human, p19/p40 heterodimer); assay: cell_activity; TransAM STAT3, PHA blasts; Table 35 gives 1 uM for full length; conditions: tags: R&D Systems
Description: as §1, §2

[4] = molecular target: T1, IL-23 (human, p19/p40 heterodimer); assay: cell_activity; TransAM STAT3, PHA blasts; Table 35 gives 700 nM for full length; conditions: tags: R&D Systems
Description: as §1, §2

[5] = molecular target: T1, IL-23 (human, p19/p40 heterodimer); assay: filter; -tRNA; competition 8 nM; conditions: tags: R&D Systems, carrier free
Description: These molecules were gel purified and assayed for IL-23 binding using the dot blot assay as described above and compared to each other and to the parent molecule, ARC979. An 8 point IL-23 titration (0 nM to 300 nM, 3 fold serial dilutions) was used in the binding assay.

T1 sequence (Q9NPF7 20-189, chain 1 of 2): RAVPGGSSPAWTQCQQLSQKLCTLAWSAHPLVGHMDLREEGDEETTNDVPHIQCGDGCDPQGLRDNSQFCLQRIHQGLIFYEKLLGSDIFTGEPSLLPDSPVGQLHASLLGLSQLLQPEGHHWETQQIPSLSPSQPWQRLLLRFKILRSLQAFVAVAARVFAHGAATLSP
T1 sequence (P29460 23-328, chain 2 of 2): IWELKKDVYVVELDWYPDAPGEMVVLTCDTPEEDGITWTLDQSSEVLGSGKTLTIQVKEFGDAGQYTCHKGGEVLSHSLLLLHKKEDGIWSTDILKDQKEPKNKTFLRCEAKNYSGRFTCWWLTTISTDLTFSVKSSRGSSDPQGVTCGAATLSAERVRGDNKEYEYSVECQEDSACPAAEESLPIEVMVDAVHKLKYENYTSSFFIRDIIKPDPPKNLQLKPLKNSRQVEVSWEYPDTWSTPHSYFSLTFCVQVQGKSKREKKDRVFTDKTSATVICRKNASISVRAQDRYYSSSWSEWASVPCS

B1: AMX84-H12 family clone AMX91-H12 (ssRNA)
RNA: GGGAAAAGCGAAUCAUACACAAGACGUGUGCUUUAUGUAAACCAUAACGUUCCAUAAGGAAUAUGCUCCGCCAGAGACCAACCGAGAA
modifications: 2'-F C and U, 2'-OH A and G
IC50 [1]: 350 nM

GGCGGUACGGGGAGUGUGGGUUGGGGCCGG (mixed, deoxy A,G; 2'-OMe C,U) [ARC794]
Kd [2]: 14 nM

B2: AMX84-A10 (ssRNA)
RNA: GGGAAAAGCGAAUCAUACACAAGAAGUUUUUUGUGCUCUGAGUACUCAGCGUCCGUAAGGGAUAUGCUCCGCCAGAGACCAACCGAGAA
modifications: 2'-F C and U, 2'-OH A and G
IC50 [3]: 400 nM

B3: AMX84-B10 (ssRNA)
RNA: GGGAAAAGCGAAUCAUACACAAGAAGUGCUUCAUGCGGCAAACUGCAUGACGUCGAAUAGAUAUGCUCCGCCAGAGACCAACCGAGAA
modifications: 2'-F C and U, 2'-OH A and G
IC50 [4]: > 1000 nM

B4: ARC1163 (mixed)
RNA: ACAGGCAAGUAAUUGGGGAGUGCGGGCGGGGUGU
modifications: deoxy A,G; 2'-OMe C,U; PS 21-22 [PS between 21-22; 2'-OMe C,U at 2,6,10,13,14,21,23,27,32,34; deoxy A,G at all other positions]
Kd [5]: 49 nM
